Reference: patent US7345026
Read-outs that look alike come from different tables or passages of the source.

Molecular target: HLA-A2.1 molecules on T2 (TAP-, HLA-A2.1+) cells (human)
Experiment: T2 cells, peptide binding by surface HLA-A2.1 (BB7.2) flow cytometry; ratio of concentrations reaching 20% of maximal binding

RA (relative affinity) (ratio to HIV 1 rt.476 reference peptide) (remark: other sources report otherwise)	RA (relative affinity) (ratio to HIV 1 rt.476 reference peptide)	Binder
0.91	–	RMPEAAPPV [p53 65-73 epitopic peptide]
–	1.52	VLPDVFIRC (modifications not checked) [NA17-A nt38-64 epitopic peptide]
